# PMC4161475, “EhCoactosin Stabilizes Actin Filaments in the Protist Parasite Entamoeba histolytica” (PLoS Pathogens, 2014)
# B1: EhCoactosin with the N-terminal seven amino acid residues deleted (domain or fragment)
# chain: EVAGPVAEVIDDKNEEVEFVVFGVQTQPNKLVVDAKGKGGLEEVKAALKEDALQFAYYRTISGDEESKRVKFVFISWAGEGIKKPKLRAVMSILKGDVKNVINNFHIELHATSLDDLVEDEIAAKIKKAGGADYSFNTTSN
# notes: Coactosin of Entamoeba histolytica, NCBI XP_650926.1, 7 residues deleted from the N terminus; The tag is told for the EhCoactosin gene in pET28b; also called EhCoΔN; N-terminal truncation mutant; source: E. coli BL21 (DE3), purified (Nickel-NTA, Superdex 75 gel filtration)
# B2: EhCoactosin, full-length wild type (natural protein)
# chain: MSGFDLSEVAGPVAEVIDDKNEEVEFVVFGVQTQPNKLVVDAKGKGGLEEVKAALKEDALQFAYYRTISGDEESKRVKFVFISWAGEGIKKPKLRAVMSILKGDVKNVINNFHIELHATSLDDLVEDEIAAKIKKAGGADYSFNTTSN
# notes: Cloned in pET28b between NcoI and XhoI; also called EhCoWT; WT EhCoactosin; source: E. coli BL21 (DE3), purified (Nickel-NTA, Superdex 75 gel filtration)
# Target: G-actin (rabbit skeletal muscle actin, monomeric) (rabbit, UniProt P68135 1-377)
# Test: ELISA; solid-phase assay: wells coated with 5 µM G-actin in PBS, 5 µM protein added, detected with anti-EhCoactosin antibody; in the presence of Ca2+ (2 mM) or EGTA (5 mM)
# Conditions: both partners purified
Binder,fold increase in binding against WT [fold],fold of the level of binding of EhCaBP1 [fold]
B1,2,–
B2,–,2
